Test results: US5726018

Columns and labels:
[1] = target: pp32, dephosphorylated (murine) (UniProt O35381)
[2] = target: pp35 (35 kDa murine nuclear phosphoprotein purified from A20 cells) (murine)
[3] = target: pp32 (32 kDa murine nuclear phosphoprotein from A20 cells) (murine) (UniProt O35381)
[4] = target: pp35, dephosphorylated (murine)

| Substance | 32P incorporation (stoichiometry of phosphorylation) [1] | 32P incorporation (stoichiometry of phosphorylation) [2] | 32P incorporation (stoichiometry of phosphorylation) [3] | 32P incorporation (stoichiometry of phosphorylation) [4] |
| --- | --- | --- | --- | --- |
| protein kinase C from rat brain (80 kDa isoenzyme) | < 0.01 mol/mol | < 0.01 mol/mol | < 0.01 mol/mol | < 0.01 mol/mol |
| A 431 cell epidermal growth factor receptor kinase (from UniProt P00533) (enzyme) | < 0.01 mol/mol | – | – | – |
| casein kinase II from bovine thymus (enzyme) | 0.08 mol/mol | 0.05 mol/mol | < 0.01 mol/mol | 0.76 mol/mol |
